According to the Immune Epitope Database (IEDB):

Key:
HLA-B*07:02 [1] = assay: IEDB peptide-MHC binding, purified MHC/direct/fluorescence; filed as Kd, often an IC50 or EC50 that approximates it; ≥ and ≤ were set here for values at or beyond the usual limits of such assays
HLA-B*07:02 [2] = assay: IEDB peptide-MHC binding, purified MHC/competitive/fluorescence; filed as Kd, often an IC50 or EC50 that approximates it; ≥ and ≤ were set here for values at or beyond the usual limits of such assays; details: source organism: Francisella tularensis subsp. tularensis SCHU S4
HLA-A*24:02 = assay: IEDB peptide-MHC binding, purified MHC/direct/fluorescence; filed as Kd, often an IC50 or EC50 that approximates it; ≥ and ≤ were set here for values at or beyond the usual limits of such assays; details: source organism: Francisella tularensis subsp. tularensis SCHU S4
HLA-A*02:01 = assay: as above
[3] = source organism: Francisella tularensis subsp. tularensis SCHU S4
[4] = source organism: Francisella tularensis

Sequence | Kd (HLA-A*24:02) | Kd (HLA-A*02:01; [3]) | also measured
APAFVVIADL | – | – | Kd (HLA-B*07:02 [1]; [3]): 114 nM
APAWFQASA | – | – | Kd (HLA-B*07:02 [2]): ≥ 5000 nM
APFANTYSAL | – | – | Kd (HLA-B*07:02 [1]; [4]): 22 nM
APYPNVVEM | – | – | Kd (HLA-B*07:02 [1]; [3]): 127 nM
AYVKNGYFEI | 76 nM | – | –
FLMPFMHYIV | – | ≤ 1 nM | –
FLSNVGHYV | – | ≤ 1 nM | –
FLSPNQVTNV | – | ≤ 1 nM | –
FPATGQNIYM | – | – | Kd (HLA-B*07:02 [1]; [3]): 588 nM
FPICSTYKFL | – | – | Kd (HLA-B*07:02 [1]; [3]): 226 nM
FPICSVFKFL | – | – | Kd (HLA-B*07:02 [1]; [3]): 251 nM
FPINLNSSQL | – | – | Kd (HLA-B*07:02 [1]; [3]): 62 nM
FPKAFINIV | – | – | Kd (HLA-B*07:02 [1]; [3]): 151 nM
FPNINFSPEV | – | – | Kd (HLA-B*07:02 [2]): ≥ 5000 nM
FPQANLTGGI | – | – | Kd (HLA-B*07:02 [2]): 2140 nM
GIDGNVTFTV | – | ≤ 1 nM | –
GLNLVVSSSV | – | 20 nM | –
GTDGFPFKL | – | 24 nM | –
IFWQFHQLL | 10 nM | – | –
ILDPKTGLV | – | 15 nM | –
ILLPWFVDL | – | ≤ 1 nM | –

Sequence | Kd (HLA-A*24:02) | Kd (HLA-A*02:01; [3]) | also measured
IMSSFEFQV | – | ≤ 1 nM | –
IPMTLTASPL | – | – | Kd (HLA-B*07:02 [1]; [3]): 4 nM
IPRTMLPLSL | – | – | Kd (HLA-B*07:02 [1]; [3]): 3 nM
IYNNYDVLF | 23 nM | – | –
IYSDKGLLF | 4 nM | – | –
KIDSTSFSV | – | ≤ 1 nM | –
KLAKKVLSRV | – | 10 nM | –
KLGGYVSFV | – | ≤ 1 nM | –
KLLGQINLV | – | ≤ 1 nM | –
KLLPEGYWV | – | ≤ 1 nM | –
KLWGLVDFV | – | ≤ 1 nM | –
KYWNNHRQGI | 435 nM | – | –
LMWDNVGLV | – | ≤ 1 nM | –
LPRYNIATSV | – | – | Kd (HLA-B*07:02 [1]; [3]): 3 nM
LYQPLLDLL | 30 nM | – | –
LYSENGHFSW | 18 nM | – | –
MPVSRQISRM | – | – | Kd (HLA-B*07:02 [1]; [3]): 665 nM
NLDTSPFFV | – | ≤ 1 nM | –
NYNNLDDKF | 3 nM | – | –
NYQKWTAPL | 5 nM | – | –
NYVDSAQLAF | 9 nM | – | –

Sequence | Kd (HLA-A*24:02) | Kd (HLA-A*02:01; [3]) | also measured
PYLKQGIEF | 8 nM | – | –
PYLKSFLSF | 20 nM | – | –
QLVGRVFAGL | – | – | Kd (HLA-A*02:01; [4]): 2 nM
QLWPEEIGV | – | ≤ 1 nM | –
RLIGHISTL | – | ≤ 1 nM | –
RYTDSEYFVI | 15 nM | – | –
SPMEHSKRI | – | – | Kd (HLA-B*07:02 [1]; [3]): 62 nM
SPMGPLAVSF | – | – | Kd (HLA-B*07:02 [1]; [3]): 18 nM
SPQANNLYL | – | – | Kd (HLA-B*07:02 [1]; [3]): 74 nM
SYDRWGIPI | 33 nM | – | –
SYSYLVYLI | 3 nM | – | –
SYTFTQTFF | 24 nM | – | –
TPNGNIPTL | – | – | Kd (HLA-B*07:02 [1]; [3]): 46 nM
TYPNSQQQTL | 180 nM | – | –
TYTSTLHPRL | 200 nM | – | –
VLPGVVVPIV | – | 15 nM | –
VPRKPLLSYI | – | – | Kd (HLA-B*07:02 [1]; [3]): 38 nM
WLGETFHGL | – | ≤ 1 nM | –
WLGNHGFEV | – | ≤ 1 nM | –
WYTNLDTDKF | 255 nM | – | –
YYLDRGYLDF | 10 nM | – | –
